What was measured:
[1] = target: T1, homoserine dehydrogenase (HseDH) (Pyrococcus horikoshii, UniProt O58802); experiment: crystal structure at […] Å; FT-ICR MS of released cofactor; assay type: binding; design: gene PH1075; ordered residues 1-319 in each subunit (homodimer)
T1 sequence (O58802 1-319): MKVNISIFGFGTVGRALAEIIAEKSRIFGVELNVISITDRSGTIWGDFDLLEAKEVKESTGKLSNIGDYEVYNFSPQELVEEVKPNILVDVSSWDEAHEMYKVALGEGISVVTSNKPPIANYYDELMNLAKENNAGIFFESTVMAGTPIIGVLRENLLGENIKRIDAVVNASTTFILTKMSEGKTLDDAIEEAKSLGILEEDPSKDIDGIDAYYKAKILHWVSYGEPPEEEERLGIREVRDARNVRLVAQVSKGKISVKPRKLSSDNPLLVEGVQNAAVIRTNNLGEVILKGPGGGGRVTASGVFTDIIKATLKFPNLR

[2] = target: T2, homoserine dehydrogenase (HseDH) (Pyrococcus horikoshii, UniProt O58802, K57A); experiment: crystal structure at […] Å (with Hse); FT-ICR MS; assay type: binding
T2 construct: gene PH1075; ordered residues 1-319 in each subunit (homodimer)
T2 sequence (O58802 1-319 K57A): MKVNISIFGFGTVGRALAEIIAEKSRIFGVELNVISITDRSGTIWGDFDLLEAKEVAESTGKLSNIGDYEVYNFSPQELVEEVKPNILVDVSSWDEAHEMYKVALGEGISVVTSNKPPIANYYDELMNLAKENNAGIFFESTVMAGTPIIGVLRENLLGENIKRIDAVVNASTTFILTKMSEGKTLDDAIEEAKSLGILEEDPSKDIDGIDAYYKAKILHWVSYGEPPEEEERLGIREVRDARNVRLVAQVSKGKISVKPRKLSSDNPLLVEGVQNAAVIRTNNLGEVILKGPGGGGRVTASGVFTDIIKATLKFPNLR

[3] = target: T3, homoserine dehydrogenase (HseDH) (Pyrococcus horikoshii, UniProt O58802, R40A); experiment: FT-ICR MS of cofactor released from purified protein; assay type: binding
T3 construct: gene PH1075; His-tagged HseDH
T3 sequence (O58802 1-319 R40A): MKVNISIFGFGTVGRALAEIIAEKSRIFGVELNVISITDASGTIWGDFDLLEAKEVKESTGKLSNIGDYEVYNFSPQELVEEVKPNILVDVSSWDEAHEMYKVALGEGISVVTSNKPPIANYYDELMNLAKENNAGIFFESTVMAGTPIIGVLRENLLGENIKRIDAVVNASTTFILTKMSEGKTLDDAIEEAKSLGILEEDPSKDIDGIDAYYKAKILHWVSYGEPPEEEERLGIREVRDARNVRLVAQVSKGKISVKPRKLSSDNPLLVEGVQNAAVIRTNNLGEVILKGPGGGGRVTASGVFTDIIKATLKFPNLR

[4] = target: T2, homoserine dehydrogenase (HseDH); experiment: crystal structure at […] Å (with NADPH); assay type: binding
[5] = target: T1, homoserine dehydrogenase (HseDH); experiment: inhibition of NAD-dependent Hse oxidation, Morrison tight-binding fit; assay type: biochemical; design: gene PH1075; His-tagged HseDH
purified protein [6] = substrate: N[C@@H](CCO)C(=O)O; experiment: purified protein; settings: NAD
purified protein [7] = substrate: NC(=O)C1=CN([C@@H]2O[C@H](COP(=O)(O)OP(=O)(O)OC[C@H]3O[C@@H](n4cnc5c(N)ncnc54)[C@H](O)[C@@H]3O)[C@@H](O)[C@H]2O)C=CC1; experiment: purified protein; settings: varied: cofactor
[8] = target: the molecule itself; experiment: SEC; gel filtration on Superose 6 10/300 GL, 10 mM Tris-HCl (pH 7.5) with 0.2 M NaCl; native mass against Bio-Rad gel filtration standards
purified protein [9] = substrate: NC(=O)c1ccc[n+]([C@@H]2O[C@H](COP(=O)([O-])OP(=O)(O)OC[C@H]3O[C@@H](n4cnc5c(N)ncnc54)[C@H](O)[C@@H]3O)[C@@H](O)[C@H]2O)c1; experiment: purified protein; assay type: biochemical, Pyrococcus horikoshii; settings: varied: cofactor
purified protein [10] = substrate: NC(=O)c1ccc[n+]([C@@H]2O[C@H](COP(=O)(O)OP(=O)(O)OC[C@H]3O[C@@H](n4cnc5c(N)ncnc54)[C@H](OP(=O)(O)O)[C@@H]3O)[C@@H](O)[C@H]2O)c1; experiment: purified protein; assay type: biochemical, Pyrococcus horikoshii; settings: varied: cofactor
[11] = target: the molecule itself; experiment: crystal structure; sitting-drop vapor diffusion at 20 °C; wild type: 0.1 M potassium phosphate pH 6.2, 20% MPD; K57A with 1 mM Hse: 16% PEG monomethyl ether 2000, 0.1 M citrate pH 6.5; one homodimer in the asymmetric unit

## NC(=O)C1=CN([C@@H]2O[C@H](COP(=O)(O)OP(=O)(O)OC[C@H]3O[C@@H](n4cnc5c(N)ncnc54)[C@H](OP(=O)(O)O)[C@@H]3O)[C@@H](O)[C@H]2O)C=CC1 [NADPH]
[1]
  crystal structure at 2.30 Å; FT-ICR MS of released cofactor: These results demonstrate that the molecule bound to P. horikoshii HseDH is NADPH.
[2]
  crystal structure at 2.43 Å (with Hse); FT-ICR MS: we observed a clear density corresponding to the cofactor bound within the nucleotide-binding site
[3]
  FT-ICR MS of cofactor released from purified protein: indicating that NADPH tightly bound to R40A, as in the case of the wild type enzyme

## N[C@@H](CCO)C(=O)O [Hse]
[4]
  crystal structure at 2.43 Å (with NADPH): extra density within the active site cavity, and after construction and refinement of the peptide chain, a Hse molecule could be modeled

## NC(=O)c1ccc[n+]([C@@H]2O[C@H](COP(=O)(O)OP(=O)(O)OC[C@H]3O[C@@H](n4cnc5c(N)ncnc54)[C@H](OP(=O)(O)O)[C@@H]3O)[C@@H](O)[C@H]2O)c1 [NADP]
[5]
  Ki: 5.2 ± 0.1 nM

B1: Pyrococcus horikoshii homoserine dehydrogenase (HseDH), His-tagged wild type (enzyme, UniProt O58802 1-319, looked up)
chain: MKVNISIFGFGTVGRALAEIIAEKSRIFGVELNVISITDRSGTIWGDFDLLEAKEVKESTGKLSNIGDYEVYNFSPQELVEEVKPNILVDVSSWDEAHEMYKVALGEGISVVTSNKPPIANYYDELMNLAKENNAGIFFESTVMAGTPIIGVLRENLLGENIKRIDAVVNASTTFILTKMSEGKTLDDAIEEAKSLGILEEDPSKDIDGIDAYYKAKILHWVSYGEPPEEEERLGIREVRDARNVRLVAQVSKGKISVKPRKLSSDNPLLVEGVQNAAVIRTNNLGEVILKGPGGGGRVTASGVFTDIIKATLKFPNLR
notes: Homoserine dehydrogenase, Pyrococcus horikoshii, open reading frame PH1075; amplified from the initiation codon to the termination codon; ordered residues 1-319 in each subunit of the crystal; calculated molecular weight 36,925; Expressed from pColdI (construct pCHseDH); the vector probably adds an N-terminal His6 tag with a factor Xa site (surmised); no tag removal is described; also called P. …
Purified protein [6]
  Km: 6.1 ± 0.1 mM
Purified protein [7]
  Km: 0.019 ± 0.01 mM
[8]
  stoichiometry N: 2
Purified protein [9]
  Km: 0.32 ± 0.04 mM
  Vmax: 114 µmol/min/mg
  kcat: 70.1 ± 4.5 s⁻¹
  kcat/Km: 219000 ± 13000 M⁻¹ s⁻¹

B2: homoserine dehydrogenase (HseDH) (Pyrococcus horikoshii OT3; R40A) (protein)
chain: MKVNISIFGFGTVGRALAEIIAEKSRIFGVELNVISITDASGTIWGDFDLLEAKEVKESTGKLSNIGDYEVYNFSPQELVEEVKPNILVDVSSWDEAHEMYKVALGEGISVVTSNKPPIANYYDELMNLAKENNAGIFFESTVMAGTPIIGVLRENLLGENIKRIDAVVNASTTFILTKMSEGKTLDDAIEEAKSLGILEEDPSKDIDGIDAYYKAKILHWVSYGEPPEEEERLGIREVRDARNVRLVAQVSKGKISVKPRKLSSDNPLLVEGVQNAAVIRTNNLGEVILKGPGGGGRVTASGVFTDIIKATLKFPNLR
notes: His-tagged HseDH
Purified protein [10]
  Km: 0.04 ± 0.01 mM
  Vmax: 5.5 µmol/min/mg
  kcat: 3.4 ± 0.2 s⁻¹
  kcat/Km: 89100 ± 900 M⁻¹ s⁻¹

B3: Pyrococcus horikoshii homoserine dehydrogenase (HseDH) K57A mutant, His-tagged (enzyme, UniProt O58802 1-319, looked up)
chain: MKVNISIFGFGTVGRALAEIIAEKSRIFGVELNVISITDRSGTIWGDFDLLEAKEVAESTGKLSNIGDYEVYNFSPQELVEEVKPNILVDVSSWDEAHEMYKVALGEGISVVTSNKPPIANYYDELMNLAKENNAGIFFESTVMAGTPIIGVLRENLLGENIKRIDAVVNASTTFILTKMSEGKTLDDAIEEAKSLGILEEDPSKDIDGIDAYYKAKILHWVSYGEPPEEEERLGIREVRDARNVRLVAQVSKGKISVKPRKLSSDNPLLVEGVQNAAVIRTNNLGEVILKGPGGGGRVTASGVFTDIIKATLKFPNLR
notes: Homoserine dehydrogenase, Pyrococcus horikoshii, open reading frame PH1075, with K57A made by site-directed mutagenesis of pCHseDH; ordered residues 1-319 in each subunit of the crystal; Made from pCHseDH (pColdI); the vector probably adds an N-terminal His6 tag (surmised); Crystallized with Hse; source: E. coli BL21 (DE3) codon plus-RIPL, purified (same method as the His-tagged wild type)
[11]
  binding result: binds
Purified protein [10]
  Km: 0.06 ± 0.01 mM
  Vmax: 43.3 µmol/min/mg
  kcat: 26.7 ± 0.2 s⁻¹
  kcat/Km: 518000 ± 29000 M⁻¹ s⁻¹
